Data as given in PMC4537280, “ApiAP2 Factors as Candidate Regulators of Stochastic Commitment to Merozoite Production in Theileria annulata”.

Tests used:
Conditions in all cases: protein: recombinant; tags: N-terminal GST (pGEX5x-2); label: 5' biotin on strand 1; blunt
[1] = biological target: GST-TA13515D (TaAP2.g AP2 domain) (Theileria annulata (strain Ankara, …, UniProt Q4UEK3)); experiment: EMSA; LightShift chemiluminescent EMSA kit components plus 1 ul 50% glycerol and 1 ul 1% NP40, about 0.7 ug GST fusion protein, 20 fmol biotinylated probe; competitor preincubation on ice; 4% polyacrylamide gel, 100 V, 4 C; pH and salt of binding not stated (oligo annealing in 20 mM Tris-HCl pH 7.6, 50 mM NaCl)
[2] = biological target: GST-TA11145D (TaAP2.me1 AP2 domain) (Theileria annulata (strain Ankara, …, UniProt Q4U8H9)); experiment: as above
[3] = biological target: T1, GST-TA12015D (TaAP2.me2 AP2 domain) (Theileria annulata (strain Ankara, …, UniProt Q4UDT1)); experiment: EMSA; 0.6-1.6 ug protein; LightShift chemiluminescent EMSA kit components plus 1 ul 50% glycerol and 1 ul 1% NP40, about 0.7 ug GST fusion protein, 20 fmol biotinylated probe; competitor preincubation on ice; 4% polyacrylamide gel, 100 V, 4 C; pH and salt of binding not stated (oligo annealing in 20 mM Tris-HCl pH 7.6, 50 mM NaCl)
T1 sequence: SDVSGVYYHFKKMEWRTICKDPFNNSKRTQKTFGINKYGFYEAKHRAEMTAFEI

[4] = biological target: T2, GST-TA16485D (TaAP2.me3 AP2 domain) (Theileria annulata (strain Ankara, …, UniProt Q4UIX2)); experiment: EMSA; LightShift chemiluminescent EMSA kit components plus 1 ul 50% glycerol and 1 ul 1% NP40, about 0.7 ug GST fusion protein, 20 fmol biotinylated probe; competitor preincubation on ice; 4% polyacrylamide gel, 100 V, 4 C; pH and salt of binding not stated (oligo annealing in 20 mM Tris-HCl pH 7.6, 50 mM NaCl)
T2 sequence: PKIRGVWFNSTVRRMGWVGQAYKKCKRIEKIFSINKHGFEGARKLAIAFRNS

B1: Bio-GTGTAC (dsDNA)
DNA 1: AATATTATAATAGTCGTAGCCATCAATGTGTACACATGGTAATATAGATTTTCGTTTATATT
DNA 2: AATATAAACGAAAATCTATATTACCATGTGTACACATTGATGGCTACGACTATTATAATATT
- binding result [1]: binds

B2: Bio-GTGTAC-MUT (dsDNA)
DNA 1: AATATTATAATAGTCGTAGCCATCAATATATAAAAATGGTAATATAGATTTTCGTTTATATT
DNA 2: AATATAAACGAAAATCTATATTACCATTTTTATATATTGATGGCTACGACTATTATAATATT
- binding result [1]: no binding

B3: Bio-2x(A)CACAC(A) (dsDNA)
DNA 1: GATACACACTTATGCACACACA
DNA 2: TGTGTGTGCATAAGTGTGTATC
- binding result [2]: binds

B4: Bio(A)CACAC(A)-MUT (dsDNA)
DNA 1: GATATAGAATTATGCAGAATAT
DNA 2: ATATTCTGCATAATTCTATATC
- binding result [2]: no binding

B5: Bio-TCTATA / C-box probe (dsDNA)
DNA 1: ATTGTTAATTCCCCATCCAGATCTATAAAA
DNA 2: TTTTATAGATCTGGATGGGGAATTAACAAT
- binding result [3]: no binding
- binding result [4]: binds
